Holding throughout (conditions): remark: other sources report otherwise
Experiment [1] has as its target HLA-B*0702 on T2-B7 cells (human). In words: MHC stabilization assay on T2-B7 cells (flow cytometry), relative to a reference peptide. (In general: A flow cytometer gives signals particle by particle.)
Experiment [2] deals with purified HLA-B*3501 (human). In words: competition radioimmunoassay on purified HLA, radiolabeled standard peptide.
Experiment [3] concerns the target purified HLA-B*5301 (human). The description is as above.
In experiment [4] the target is purified HLA-B*0801 (human). The experiment is described as above.
The target of experiment [5] is purified HLA-B*0702 (human). Described as above.
Experiment [6] has as its target purified HLA-B*0702 (human). In words: competition solid-phase radioimmunoassay on purified HLA-B7, radiolabeled standard peptide.

B1: hTRT peptide p277 (…) (peptide)
peptide: RPAEEATSL
Regarding B1, the RA (relative avidity) in experiment [1] amounted to 4.7.

B2: hTRT peptide p342 (…) (peptide)
peptide: RPSFLLSSL
By IC50 is commonly meant the concentration that inhibits the measured activity by half. Lower therefore signals inhibition by little substance. Take B2: the IC50 in experiment [2] stood at 1020 nM; in experiment [3], 2200 nM; in experiment [4], 37 nM.

B3: hTRT peptide p444 (…) (peptide)
peptide: DPRRLVQLL
As for B3, the IC50 was found to be 239 nM in experiment [5], 217 nM in experiment [4] and 239 nM in experiment [6].

The values are drawn from patent publication US20090202499A1, “Human Telomerase Reverse Transcriptase Peptides” (priority 2006, published 2009).
